Here are results for 19 molecules from patent publication US20260250402A1 (C O INMAGENE PTE, published 2026).

The chains are these.
T1: cynomolgus IL-7Ra expressed on CHOK1-cyno IL-7Ra cells (cynomolgus, UniProt Q38IC7 21-459)
T1 sequence: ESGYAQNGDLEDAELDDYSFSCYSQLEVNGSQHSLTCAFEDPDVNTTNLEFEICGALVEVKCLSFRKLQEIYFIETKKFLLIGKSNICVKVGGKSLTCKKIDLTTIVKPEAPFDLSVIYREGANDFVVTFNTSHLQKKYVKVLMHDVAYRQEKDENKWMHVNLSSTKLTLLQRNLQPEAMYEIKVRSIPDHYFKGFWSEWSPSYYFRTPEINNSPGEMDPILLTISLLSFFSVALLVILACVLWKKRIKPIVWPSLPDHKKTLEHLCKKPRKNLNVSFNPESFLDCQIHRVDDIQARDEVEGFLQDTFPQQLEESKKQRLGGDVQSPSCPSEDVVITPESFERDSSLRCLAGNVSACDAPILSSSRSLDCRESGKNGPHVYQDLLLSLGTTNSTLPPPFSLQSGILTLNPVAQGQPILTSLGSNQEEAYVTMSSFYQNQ

T2: Human his-tag IL-7Ra protein (human, UniProt P16871 21-239)
T2 construct: Construct not described; Position of the tag unknown; also called IL-7Ra (Biacore analyte); not shown: his tag
T2 sequence: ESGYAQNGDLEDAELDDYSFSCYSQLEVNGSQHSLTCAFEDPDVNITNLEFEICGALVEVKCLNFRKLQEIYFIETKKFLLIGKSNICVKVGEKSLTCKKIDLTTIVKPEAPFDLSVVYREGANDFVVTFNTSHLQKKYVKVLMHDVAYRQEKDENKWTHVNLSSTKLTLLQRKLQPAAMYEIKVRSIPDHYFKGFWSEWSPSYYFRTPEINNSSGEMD

T3: human IL-7Ra expressed on CHOK1-human IL-7Ra cells (human, UniProt P16871 21-459)
T3 construct: also called human IL-7Ra expressed on cell membrane; CD127
T3 sequence: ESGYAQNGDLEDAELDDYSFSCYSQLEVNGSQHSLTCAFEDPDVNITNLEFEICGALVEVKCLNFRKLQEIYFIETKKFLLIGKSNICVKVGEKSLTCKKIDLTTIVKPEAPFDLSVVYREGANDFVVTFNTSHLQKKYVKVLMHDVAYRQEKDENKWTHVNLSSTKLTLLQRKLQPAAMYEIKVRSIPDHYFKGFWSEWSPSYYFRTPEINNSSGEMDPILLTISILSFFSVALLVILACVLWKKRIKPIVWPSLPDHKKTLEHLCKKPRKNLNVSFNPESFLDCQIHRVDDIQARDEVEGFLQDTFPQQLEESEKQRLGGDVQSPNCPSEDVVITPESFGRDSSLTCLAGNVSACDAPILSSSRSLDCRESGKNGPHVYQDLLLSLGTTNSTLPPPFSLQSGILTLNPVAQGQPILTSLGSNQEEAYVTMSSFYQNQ

B1: HuAb005 (antibody, V domains shown)
VH: QVQLVQSGAEVKKPGASVKVSCKASGYRFTDYELHWVRQAPGQGLEWMGGIDPKTGGTAYNQKFKGRVTMTSDRSTSTVYMELSSLRSEDTAVYYCARSGGRWYFDVWGQGTTVTVSS
VL: DIVLTQSPASLAVSPGQRATITCRTSESVSIHLLHLMHWYQQKPGQPPKLLIYGASNLESGVPARFSGSGSGTDFTLTINPVEAEDTANYYCQQSIKDPYTFGGGTKVEIK
notes: Humanized version of cmAb011; also called humanized VL1 / humanized VH2
B2: HuAb003 (antibody, V domains shown)
VH: B1 VH with S72R, R74T
VL: DIVMTQSPDSLAVSLGERATINCRTSESVSIHLLHLMHWYQQKPGQPPKLLIYGASNLESGVPDRFSGSGSGTDFTLTISSLQAEDVAVYYCQQSIKDPYTFGGGTKVEIK
notes: Humanized version of cmAb011; also called humanized VL3 / humanized VH1
B3: HuAb015 (antibody, V domains shown)
VH: B1 VH with R67K, M70L
VL: B2 VL
notes: Humanized version of cmAb011; also called humanized VL3 / humanized VH4
B4: HuAb020 (antibody, V domains shown)
VH: B1 VH with R38K, M48I, R67K, M70L
VL: B2 VL with M4L, G72E
notes: Humanized version of cmAb011; also called humanized VL4 / humanized VH5
B5: HuAb011 (antibody, V domains shown)
VH: B1 VH with R38K, M48I
VL: B2 VL
notes: Humanized version of cmAb011; also called humanized VL3 / humanized VH3
B6: HuAb016 (antibody, V domains shown)
VH: B1 VH with R67K, M70L
VL: B2 VL with M4L, G72E
notes: Humanized version of cmAb011; also called humanized VL4 / humanized VH4
B7: HuAb004 (antibody, V domains shown)
VH: B1 VH with S72R, R74T
VL: B2 VL with M4L, G72E
notes: Humanized version of cmAb011; also called humanized VL4 / humanized VH1
B8: HuAb019 (antibody, V domains shown)
VH: B1 VH with R38K, M48I, R67K, M70L
VL: B2 VL
notes: Humanized version of cmAb011; also called humanized VL3 / humanized VH5
B9: HuAb012 (antibody, V domains shown)
VH: B1 VH with R38K, M48I
VL: B2 VL with M4L, G72E
notes: Humanized version of cmAb011; also called humanized VL4 / humanized VH3
B10: HuAb007 (antibody, V domains shown)
VH: B1 VH
VL: B2 VL
notes: Humanized version of cmAb011; also called humanized VL3 / humanized VH2
B11: HuAb010 (antibody, V domains shown)
VH: B1 VH with R38K, M48I
VL: B1 VL with G72E
notes: Humanized version of cmAb011; also called humanized VL2 / humanized VH3
B12: HuAb001 (antibody, V domains shown)
VH: B1 VH with S72R, R74T
VL: B1 VL
notes: Humanized version of cmAb011; also called humanized VL1 / humanized VH1
B13: HuAb008 (antibody, V domains shown)
VH: B1 VH
VL: B2 VL with M4L, G72E
notes: Humanized version of cmAb011; also called humanized VL4 / humanized VH2
B14: HuAb002 (antibody, V domains shown)
VH: B1 VH with S72R, R74T
VL: B1 VL with G72E
notes: Humanized version of cmAb011; also called humanized VL2 / humanized VH1
B15: HuAb009 (antibody, V domains shown)
VH: B1 VH with R38K, M48I
VL: B1 VL
notes: Humanized version of cmAb011; also called humanized VL1 / humanized VH3
B16: HuAb018 (antibody, V domains shown)
VH: B1 VH with R38K, M48I, R67K, M70L
VL: B1 VL with G72E
notes: Humanized version of cmAb011; also called humanized VL2 / humanized VH5
B17: HuAb017 (antibody, V domains shown)
VH: B1 VH with R38K, M48I, R67K, M70L
VL: B1 VL
notes: Humanized version of cmAb011; also called humanized VL1 / humanized VH5
B18: HuAb006 (antibody, V domains shown)
VH: B1 VH
VL: B1 VL with G72E
notes: Humanized version of cmAb011; also called humanized VL2 / humanized VH2
B19: HuAb014 (antibody, V domains shown)
VH: B1 VH with R67K, M70L
VL: B1 VL with G72E
notes: Humanized version of cmAb011; also called humanized VL2 / humanized VH4

Changes are numbered by the printed parent chain.

The first test has as its target T1, cynomolgus IL-7Ra expressed on …. Kind of test: flow cytometry, CHOK1-cyno IL-7Ra cells. In general terms: Flow cytometry measures light scatter and fluorescence of single cells or particles in a stream.
Regarding B1, it took 0.207 µg/mL to reach a half-maximal effect (EC50) and the “Top (MFI)” value worked out at 16900 MFI.

With B2, the midpoint of the response, the EC50, lay at 0.239 µg/mL and the “Top (MFI)” value turned out to be 16100 MFI.

In the case of B3, a half-maximal response (EC50) required 0.189 µg/mL and the “Top (MFI)” value amounted to 17400 MFI.

For B4, the midpoint of the response, the EC50, lay at 0.124 µg/mL and the “Top (MFI)” value amounted to 17600 MFI.

As for B5, it took 0.241 µg/mL to reach a half-maximal effect (EC50) and the “Top (MFI)” value is 17700 MFI.

B6: the midpoint of the response, the EC50, lay at 0.128 µg/mL and the “Top (MFI)” value came out at 17100 MFI.

Turning to B7, the EC50 came to 0.206 µg/mL and the “Top (MFI)” value came to 16200 MFI.

For the molecule B8, the response was half-maximal at 0.687 µg/mL (EC50) and the “Top (MFI)” value amounted to 18000 MFI.

On to B9, for which the EC50 was 0.165 µg/mL and the “Top (MFI)” value came out at 17000 MFI.

For the molecule B10, the response was half-maximal at 0.244 µg/mL (EC50) and the “Top (MFI)” value stood at 17100 MFI.

For the molecule B11, the concentration for a half-maximal effect (EC50) was 0.175 µg/mL and the “Top (MFI)” value came out at 17500 MFI.

Turning to B12, a half-maximal response (EC50) required 0.167 µg/mL and the “Top (MFI)” value is 16000 MFI.

For B13, it took 0.221 µg/mL to reach a half-maximal effect (EC50) and the “Top (MFI)” value is 17600 MFI.

Take B14: the EC50 worked out at 0.126 µg/mL and the “Top (MFI)” value was determined as 15900 MFI.

For B15, the EC50 stood at 0.0711 µg/mL and the “Top (MFI)” value came out at 16600 MFI.

In the case of B16, it took 0.0988 µg/mL to reach a half-maximal effect (EC50) and the “Top (MFI)” value was found to be 18400 MFI.

Regarding B17, the EC50 was determined as 0.0891 µg/mL and the “Top (MFI)” value is 17700 MFI.

In the case of B18, it took 0.191 µg/mL to reach a half-maximal effect (EC50) and the “Top (MFI)” value worked out at 16700 MFI.

Regarding B19, a half-maximal effect (EC50) was put at 0.0534 µg/mL and the “Top (MFI)” value is 16700 MFI.

The next test deals with T2, Human his-tag IL-7Ra protein. Put plainly: SPR Biacore 8K, antibody Fc-captured, human his-tag IL-7Ra analyte, 1:1 model. (In general: In SPR one partner is held on a chip, and binding of the other changes the refractive index at the surface.)
As to B1, the Kd turned out to be 0.214 nM, the koff was determined as 0.000238 s⁻¹ and the kon amounted to 1.11e+06 M⁻¹ s⁻¹.

The molecule B2 came in with a Kd of 0.212 nM, a koff of 0.000342 s⁻¹ and an association rate constant (kon) of 1.61e+06 M⁻¹ s⁻¹.

In turn, B7 yielded a Kd of 0.181 nM, a koff of 0.00029 s⁻¹ and a kon of 1.6e+06 M⁻¹ s⁻¹.

Regarding B13, the Kd worked out at 0.118 nM, the koff is 0.00031 s⁻¹ and the kon worked out at 2.64e+06 M⁻¹ s⁻¹.

For B15, the Kd was found to be 0.188 nM, the off-rate constant (koff) is 0.000267 s⁻¹ and the kon came out at 1.42e+06 M⁻¹ s⁻¹.

Another test addresses T3, human IL-7Ra expressed on CHOK1-human …. Kind of test: flow cytometry, CHOK1-human IL-7Ra cells.
Take B1: it took 0.188 µg/mL to reach a half-maximal effect (EC50) and the “Top (MFI)” value was found to be 22300 MFI.

As to B2, the EC50 came out at 0.21 µg/mL and the “Top (MFI)” value came to 21700 MFI.

Take B3: the half-maximal effective concentration (EC50) is 0.158 µg/mL and the “Top (MFI)” value stood at 24100 MFI.

B4: the EC50 was 0.115 µg/mL and the “Top (MFI)” value is 22500 MFI.

Regarding B5, the midpoint of the response, the EC50, lay at 0.256 µg/mL and the “Top (MFI)” value stood at 20500 MFI.

For the molecule B6, the EC50 came to 0.113 µg/mL and the “Top (MFI)” value was 23700 MFI.

Regarding B7, a half-maximal effect (EC50) was put at 0.2 µg/mL and the “Top (MFI)” value turned out to be 21500 MFI.

For the molecule B8, the concentration giving a half-maximal response (EC50) is 0.536 µg/mL and the “Top (MFI)” value was determined as 22800 MFI.

For B9, the midpoint of the response, the EC50, lay at 0.159 µg/mL and the “Top (MFI)” value came to 20300 MFI.

In the case of B10, the response was half-maximal at 0.209 µg/mL (EC50) and the “Top (MFI)” value stood at 21100 MFI.

On to B11, for which the response was half-maximal at 0.152 µg/mL (EC50) and the “Top (MFI)” value stood at 20600 MFI.

On to B12, for which the half-maximal effective concentration (EC50) was determined as 0.17 µg/mL and the “Top (MFI)” value was determined as 22300 MFI.

For B13, the EC50 is 0.171 µg/mL and the “Top (MFI)” value was 20400 MFI.

For the molecule B14, the response was half-maximal at 0.115 µg/mL (EC50) and the “Top (MFI)” value stood at 22600 MFI.

For B15, the 50% effective concentration (EC50) came to 0.0719 µg/mL and the “Top (MFI)” value was 20900 MFI.

As to B16, the EC50 stood at 0.105 µg/mL and the “Top (MFI)” value is 24100 MFI.

As to B17, the midpoint of the response, the EC50, lay at 0.0778 µg/mL and the “Top (MFI)” value was found to be 24600 MFI.

As for B18, the EC50 amounted to 0.177 µg/mL and the “Top (MFI)” value is 21600 MFI.

On to B19, for which the EC50 is 0.0529 µg/mL and the “Top (MFI)” value was found to be 23900 MFI.

The term EC50 denotes the concentration that produces a half-maximal response. A high value points to lower potency in that assay. In general, Kd refers to the constant that tells how readily two partners part at equilibrium. A lower Kd goes with a tighter complex. As a reminder, the koff is the first-order rate constant of dissociation. Higher therefore signals a short-lived complex. As usually defined, the kon is a measure of how fast the partners come together.
